The text below walks through data of doi:10.1101/2024.07.21.604514.

Assay [1] deals with human GLP-1R-LgBiT-2MBP (glucagon-like peptide-1 receptor, construct for structure determination) (human) (UniProt P43220).
For assay [2] the target is unchanged. The source holds these as a separate data set.

UniProt P43220, sequence (P43220 24-463): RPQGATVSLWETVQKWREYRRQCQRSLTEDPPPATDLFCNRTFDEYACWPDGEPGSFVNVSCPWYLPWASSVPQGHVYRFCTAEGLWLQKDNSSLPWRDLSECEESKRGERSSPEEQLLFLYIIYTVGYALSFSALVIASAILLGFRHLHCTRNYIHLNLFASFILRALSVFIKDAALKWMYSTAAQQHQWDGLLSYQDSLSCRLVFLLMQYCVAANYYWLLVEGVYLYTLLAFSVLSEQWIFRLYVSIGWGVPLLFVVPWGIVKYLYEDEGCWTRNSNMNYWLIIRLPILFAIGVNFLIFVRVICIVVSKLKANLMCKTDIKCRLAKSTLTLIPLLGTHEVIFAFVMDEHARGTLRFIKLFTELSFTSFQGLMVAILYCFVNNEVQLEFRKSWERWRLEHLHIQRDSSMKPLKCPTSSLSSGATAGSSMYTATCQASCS

In turn, GLP-1(9-36)NH2 (peptide) registered an EC50 of cAMP accumulation, WT GLP-1R, with 50 nM LSN3318839 (full agonist) in assay [1] of 23 nM. The substance also displayed an EC50 of cAMP accumulation, WT GLP-1R, with 5 μM LSN3318839 in assay [2] of 0.41 nM.
